Here are results for 47 variants from the Human Domainome abundance scans (Beltran et al. 2025).

± gives the uncertainty stated by the source.

The chains are these.
B1: Bromodomain adjacent to zinc finger domain protein 2B, residues 1927 to 1982; numbered along this chain, Q9UIF8 (parent)
chain: KSIMKVYCQICRKGDNEELLLLCDGCDKGCHTYCHRPKITTIPDGDWFCPACIAKA

The variants in the data set derive from B1. Put plainly: abundance fitness (aPCA) (normalised: wild type 0, dead -1); higher = more abundant; growth selection in yeast, the domain comes from the species named. To be noted: Homo sapiens.
On to KSIMKVYCQICRKGDNEELLLLCDGCDKGTHTYCHRPKITTIPDGDWFCPACIAKA [C30T], for which the abundance fitness came out at 0.039 ± 0.096.
For KSIMKVYCQICRKGDNEELLLLCDGCDKGPHTYCHRPKITTIPDGDWFCPACIAKA [C30P] the value was -0.459 ± 0.12; for KSIMKVYCQICRKGDNEELLLLCDGCDKGDHTYCHRPKITTIPDGDWFCPACIAKA [C30D], -0.238 ± 0.11.
For the variant KSIMKVYCQICRKGDNEELLLLCDGCDKGWHTYCHRPKITTIPDGDWFCPACIAKA [C30W], the abundance fitness amounted to 0.031 ± 0.075.
With KSIMKVYCQICRKGDNEELLLLCDGCDKGIHTYCHRPKITTIPDGDWFCPACIAKA [C30I] the figure was 0.15 ± 0.14.
With KSIMKVYCQICRKGDNEELLLLCDGCDKGQHTYCHRPKITTIPDGDWFCPACIAKA [C30Q] the figure was 0.024 ± 0.11; with KSIMKVYCQICRKGDNEELLLLCDGCDKGLHTYCHRPKITTIPDGDWFCPACIAKA [C30L], -0.064 ± 0.068; with KSIMKVYCQICRKGDNEELLLLCDGCDKGHHTYCHRPKITTIPDGDWFCPACIAKA [C30H], -0.016 ± 0.15.
Regarding KSIMKVYCQICRKGDNEELLLLCDGCDKGMHTYCHRPKITTIPDGDWFCPACIAKA [C30M], the abundance fitness worked out at 0.069 ± 0.09.
With KSIMKVYCQICRKGDNEELLLLCDGCDKGVHTYCHRPKITTIPDGDWFCPACIAKA [C30V], the abundance fitness is -0.071 ± 0.074.
With KSIMKVYCQICRKGDNEELLLLCDGCDKGAHTYCHRPKITTIPDGDWFCPACIAKA [C30A] the figure was -0.101 ± 0.08.
For the variant KSIMKVYCQICRKGDNEELLLLCDGCDKGEHTYCHRPKITTIPDGDWFCPACIAKA [C30E], the abundance fitness amounted to 0.034 ± 0.083.
With KSIMKVYCQICRKGDNEELLLLCDGCDKGGHTYCHRPKITTIPDGDWFCPACIAKA [C30G] the figure was -0.009 ± 0.063; with KSIMKVYCQICRKGDNEELLLLCDGCDKGFHTYCHRPKITTIPDGDWFCPACIAKA [C30F], -0.002 ± 0.11.
KSIMKVYCQICRKGDNEELLLLCDGCDKGNHTYCHRPKITTIPDGDWFCPACIAKA [C30N]: the abundance fitness is -0.208 ± 0.13.
For the variant KSIMKVYCQICRKGDNEELLLLCDGCDKGSHTYCHRPKITTIPDGDWFCPACIAKA [C30S], the abundance fitness is -0.011 ± 0.077.
For KSIMKVYCQICRKGDNEELLLLCDGCDKGYHTYCHRPKITTIPDGDWFCPACIAKA [C30Y] the value was 0.004 ± 0.11; for KSIMKVYCQICRKGDNEELLLLCDGCDKGKHTYCHRPKITTIPDGDWFCPACIAKA [C30K], -0.076 ± 0.099; for KSIMKVYCQICRKGDNEELLLLCDGCDNGCHTYCHRPKITTIPDGDWFCPACIAKA [K28N], -0.047 ± 0.14.
In the case of KSIMKVYCQICRKGDNEELLLLCDGCDPGCHTYCHRPKITTIPDGDWFCPACIAKA [K28P], the abundance fitness is -0.755 ± 0.15.
As to KSIMKVYCQICRKGDNEELLLLCDGCDYGCHTYCHRPKITTIPDGDWFCPACIAKA [K28Y], the abundance fitness was -0.035 ± 0.16.
As for KSIMKVYCQICRKGDNEELLLLCDGCDLGCHTYCHRPKITTIPDGDWFCPACIAKA [K28L], the abundance fitness is -0.025 ± 0.097.
For KSIMKVYCQICRKGDNEELLLLCDGCDIGCHTYCHRPKITTIPDGDWFCPACIAKA [K28I] the value was -0.329 ± 0.15; for KSIMKVYCQICRKGDNEELLLLCDGCDQGCHTYCHRPKITTIPDGDWFCPACIAKA [K28Q], 0.094 ± 0.19.
In the case of KSIMKVYCQICRKGDNEELLLLCDGCDTGCHTYCHRPKITTIPDGDWFCPACIAKA [K28T], the abundance fitness was -0.026 ± 0.11.
With KSIMKVYCQICRKGDNEELLLLCDGCDMGCHTYCHRPKITTIPDGDWFCPACIAKA [K28M] the figure was -0.002 ± 0.12; with KSIMKVYCQICRKGDNEELLLLCDGCDSGCHTYCHRPKITTIPDGDWFCPACIAKA [K28S], -0.089 ± 0.087; with KSIMKVYCQICRKGDNEELLLLCDGCDWGCHTYCHRPKITTIPDGDWFCPACIAKA [K28W], 0.008 ± 0.1.
With KSIMKVYCQICRKGDNEELLLLCDGCDKGCVTYCHRPKITTIPDGDWFCPACIAKA [H31V] the figure was -0.624 ± 0.073.
On to KSIMKVYCQICRKGDNEELLLLCDGCDKGCMTYCHRPKITTIPDGDWFCPACIAKA [H31M], for which the abundance fitness is -0.71 ± 0.11.
For KSIMKVYCQICRKGDNEELLLLCDGCDKGCGTYCHRPKITTIPDGDWFCPACIAKA [H31G], the abundance fitness is -0.471 ± 0.063.
KSIMKVYCQICRKGDNEELLLLCDGCDKGCDTYCHRPKITTIPDGDWFCPACIAKA [H31D]: the abundance fitness is -0.386 ± 0.12.
As for KSIMKVYCQICRKGDNEELLLLCDGCDKGCPTYCHRPKITTIPDGDWFCPACIAKA [H31P], the abundance fitness is -0.556 ± 0.1.
Turning to KSIMKVYCQICRKGDNEELLLLCDGCDKGCWTYCHRPKITTIPDGDWFCPACIAKA [H31W], the abundance fitness is -0.856 ± 0.1.
For KSIMKVYCQICRKGDNEELLLLCDGCDKGCNTYCHRPKITTIPDGDWFCPACIAKA [H31N] the value was -0.553 ± 0.14.
With KSIMKVYCQICRKGDNEELLLLCDGCDKGCRTYCHRPKITTIPDGDWFCPACIAKA [H31R], the abundance fitness is -0.601 ± 0.069.
Turning to KSIMKVYCQICRKGDNEELLLLCDGCDKGCKTYCHRPKITTIPDGDWFCPACIAKA [H31K], the abundance fitness is -0.5 ± 0.13.
With KSIMKVYCQICRKGDNEELLLLCDGCDKGCATYCHRPKITTIPDGDWFCPACIAKA [H31A] the figure was -0.683 ± 0.083.
For KSIMKVYCQICRKGDNEELLLLCDGCDKGCYTYCHRPKITTIPDGDWFCPACIAKA [H31Y] the value was -0.573 ± 0.1; for KSIMKVYCQICRKGDNEELLLLCDGCDKGCFTYCHRPKITTIPDGDWFCPACIAKA [H31F], -0.954 ± 0.2; for KSIMKVYCQICRKGDNEELLLLCDGCDKGCQTYCHRPKITTIPDGDWFCPACIAKA [H31Q], -0.622 ± 0.11.
For KSIMKVYCQICRKGDNEELLLLCDGCDKGCLTYCHRPKITTIPDGDWFCPACIAKA [H31L] the value was -0.926 ± 0.1.
As to KSIMKVYCQICRKGDNEELLLLCDGCDKGCCTYCHRPKITTIPDGDWFCPACIAKA [H31C], the abundance fitness was -0.483 ± 0.13.
For KSIMKVYCQICRKGDNEELLLLCDGCDKGCTTYCHRPKITTIPDGDWFCPACIAKA [H31T] the value was -0.446 ± 0.1; for KSIMKVYCQICRKGDNEELLLLCDGCDKGCETYCHRPKITTIPDGDWFCPACIAKA [H31E], -0.753 ± 0.12; for KSIMKVYCQICRKGDNEELLLLCDGCDKGCITYCHRPKITTIPDGDWFCPACIAKA [H31I], -0.817 ± 0.16.
As to KSIMKVYCQICRKGDNEELLLLCDGCDKGCSTYCHRPKITTIPDGDWFCPACIAKA [H31S], the abundance fitness was -0.639 ± 0.088.
